Twelve molecules from patent US20090311283A1 can be followed below.

Where two headings read alike, the source gives them in different places.

Assay [1] concerns the target HLA-A*3301 (human).
Assay [2] concerns the target HLA-A*6801 (human). The assay can be described thus: competition with 125I-labelled probe peptide for purified HLA-A*6801, gel filtration; ratio to standard peptide 941.12.
The target in assay [3] is HLA-A*3101 (human). Nature of the assay: competition with 125I-labelled probe peptide for purified HLA-A*3101, gel filtration; ratio to standard peptide 941.12. In general terms: In gel filtration, larger molecules generally elute earlier.
Assay [4] concerns the target HLA-B*5101 (Human). The assay can be described thus: competition with 125I-labelled probe peptide for purified HLA, gel filtration.
The target in assay [5] is HLA-B*5401 (Human). The assay is described as above.
The target in assay [6] is HLA-B*3501 (Human). The description is as above.
Assay [7] concerns the target HLA-A*0301 (human). Nature of the assay: competitive inhibition of 125I-labelled probe peptide binding to purified HLA; relative to standard peptide.
The target in assay [8] is HLA-A*1101 (human).
Assay [9] has as its target HLA-A*0301 (human). Nature of the assay: inhibition of binding of a 125I-labelled probe peptide to purified HLA-A*0301, gel filtration; relative to the standard peptide.
Assay [10] has as its target HLA-A*0301 (human). The assay can be described thus: competition with 125I probe peptide on purified HLA-A*0301; relative to standard peptide 941.12.
Assay [11] has as its target HLA-A*3101 (human). Nature of the assay: competition with 125I probe peptide on purified HLA-A*3101; relative to standard peptide 941.12.
Assay [12] deals with HLA-A*6801 (human). Nature of the assay: competition with 125I probe peptide on purified HLA-A*6801; relative to standard peptide 941.12.
Assay [13] addresses HLA-A*3101 (human). Nature of the assay: competitive inhibition of 125I-labelled probe peptide binding to purified HLA; relative to standard peptide.
The target of assay [14] is HLA-A*3301 (human). Described as above.
The mark [15] stands for this setting: remark: other sources report otherwise.

PLSYQHFR (modifications not checked) [HBV POL 2 peptide PLSYQHFR]: the binding affinity ratio (IC50 of standard peptide / IC50 of test peptide) was -0.0009 in [1], 0.0001 in assay [2] and -0.0009 in [3].
Regarding SPEHCSPHHTA (modifications not checked) [HBV NUC 44 peptide …], the binding affinity ratio (IC50 of standard peptide / IC50 of test peptide) stood at 0.0001 in assay [4], 0.0011 in assay [5] and 0.0001 in [6].
In the case of HLNPNKTKR (modifications not checked) [HBV POL 569 peptide …], the binding affinity ratio (IC50 of standard peptide / IC50 of test peptide) in assay [7] was 0.0025.
In the case of RTPSPRRR (modifications not checked) [HBV NUC 188 peptide RTPSPRRR], the binding affinity ratio (IC50 standard peptide / IC50 test peptide) is 0.0014 in assay [1]; -0.0002 in assay [8]; -0.0002 in [10]; 0.0033 in assay [11]; 0.0002 in [12]. Further, the binding affinity ratio (IC50 of standard peptide / IC50 of test peptide) in [9] is -0.0002.
With GMDIDPYK (modifications not checked) [HBV NUC 29 peptide GMDIDPYK], the binding affinity ratio (IC50 of standard peptide / IC50 of test peptide) was -0.0009 in [13], -0.0009 in [14] and 0.0006 in assay [7].
On to SAGPCALRF (modifications not checked) [HBV X 65 peptide …], for which, in assay [9], the binding affinity ratio (IC50 of standard peptide / IC50 of test peptide) was -0.0003.
Regarding LPLDKGIKPYY (modifications not checked) [HBV POL 123 peptide …], the binding affinity ratio (IC50 of standard peptide / IC50 of test peptide) in [4] was 0.0001; in [5] it was 0.0001; in [6], 0.0009.
As to PLTVNEKRR (modifications not checked) [HBV POL 98 peptide …], the binding affinity ratio (IC50 of standard peptide / IC50 of test peptide) was 0.0027 in assay [1], 0.0005 in [8] and 0.0002 in assay [2].
Regarding SAICSVVR (modifications not checked) [HBV POL 520 peptide SAICSVVR], the binding affinity ratio (IC50 standard peptide / IC50 test peptide) in assay [1] (setting [15]) is 0.0081; in assay [8] (setting [15]), 0.0071; in [10] (setting [15]) it was -0.0002; in [11] (setting [15]) it was 0.028; in assay [12] (setting [15]) it was 0.069. For the same molecule, in assay [9] (setting [15]), the binding affinity ratio (IC50 of standard peptide / IC50 of test peptide) is -0.0002.
With SAGPCALR (modifications not checked) [HBV X 65 peptide SAGPCALR], the binding affinity ratio (IC50 standard peptide / IC50 test peptide) in [8] (setting [15]) is 0.002; in assay [10] (setting [15]) it was -0.0002; in assay [11] (setting [15]) it was 0.0029; in [12] (setting [15]), 0.036.
For SALNPADDPSR (modifications not checked) [HBV POL 771 peptide …], the binding affinity ratio (IC50 standard peptide / IC50 test peptide) in assay [1] was -0.0023; in assay [8], -0.0003; in [10], -0.0004; in assay [11], -0.0012; in [12], 0.0003. Further, the binding affinity ratio (IC50 of standard peptide / IC50 of test peptide) in [9] was -0.0004.
For the molecule SSAGPCALRF (modifications not checked) [HBV X 64 peptide …], the binding affinity ratio (IC50 of standard peptide / IC50 of test peptide) in [9] was -0.0003.
